According to PMC10250233, “RPA engages telomeric G-quadruplexes more effectively than CST”:

Experiments:
[1] = biological target: T1, CST (CTC1-STN1-TEN1) (human, UniProt Q2NKJ3;Q9H668;Q86WV5 1-1217;1-368;1-123); experiment: fluorescence anisotropy; 200 mM LiCl; FA: 200 mM NaCl, KCl or LiCl, 20 mM HEPES pH 7.4, 1 mM DTT, 22-25 C, 375 or 750 pM oligo, Kd,app +/- SEM; EMSA: 20 mM HEPES pH 7.4, 200 mM KCl, 1 nM 32P oligo; settings: protein: recombinant, tags: 2xFLAG N-term on CTC1, 6xHis N-term on STN1 and TEN1, copies: 1;1;1, label: 5' fluorescein, linear in LiCl
T1 sequence (Q2NKJ3 whole entry, chain 1 of 3): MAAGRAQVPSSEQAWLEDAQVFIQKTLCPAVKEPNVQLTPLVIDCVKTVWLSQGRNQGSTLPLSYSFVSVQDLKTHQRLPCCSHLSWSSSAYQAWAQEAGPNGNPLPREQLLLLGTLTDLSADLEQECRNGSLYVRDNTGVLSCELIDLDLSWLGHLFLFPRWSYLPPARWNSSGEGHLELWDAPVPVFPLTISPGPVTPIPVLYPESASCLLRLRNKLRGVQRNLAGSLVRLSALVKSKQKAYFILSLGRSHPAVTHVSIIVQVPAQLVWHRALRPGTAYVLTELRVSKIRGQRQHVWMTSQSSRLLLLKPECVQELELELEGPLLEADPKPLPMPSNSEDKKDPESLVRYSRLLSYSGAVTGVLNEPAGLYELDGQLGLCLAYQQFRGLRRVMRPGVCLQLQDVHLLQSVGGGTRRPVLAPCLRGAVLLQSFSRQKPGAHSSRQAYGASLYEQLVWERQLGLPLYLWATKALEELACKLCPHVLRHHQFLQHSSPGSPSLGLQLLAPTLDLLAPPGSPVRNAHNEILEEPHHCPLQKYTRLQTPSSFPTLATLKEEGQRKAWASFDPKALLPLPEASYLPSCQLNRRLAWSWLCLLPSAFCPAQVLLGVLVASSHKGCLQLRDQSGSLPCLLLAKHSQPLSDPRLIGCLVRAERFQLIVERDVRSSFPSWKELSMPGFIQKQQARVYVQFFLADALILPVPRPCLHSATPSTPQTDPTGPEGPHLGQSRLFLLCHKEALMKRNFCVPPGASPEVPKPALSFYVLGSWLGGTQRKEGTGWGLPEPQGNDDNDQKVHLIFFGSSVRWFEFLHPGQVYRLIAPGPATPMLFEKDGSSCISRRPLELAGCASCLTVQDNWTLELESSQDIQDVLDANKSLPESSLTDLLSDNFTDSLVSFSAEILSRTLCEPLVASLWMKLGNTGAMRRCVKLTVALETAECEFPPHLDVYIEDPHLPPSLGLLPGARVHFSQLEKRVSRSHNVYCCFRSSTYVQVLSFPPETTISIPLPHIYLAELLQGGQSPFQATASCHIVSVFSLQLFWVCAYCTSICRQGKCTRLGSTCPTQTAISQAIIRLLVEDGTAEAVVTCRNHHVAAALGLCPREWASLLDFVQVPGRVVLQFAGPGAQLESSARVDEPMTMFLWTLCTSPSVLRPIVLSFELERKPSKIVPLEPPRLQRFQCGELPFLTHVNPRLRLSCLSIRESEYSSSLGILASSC
T1 sequence (Q9H668 whole entry, chain 2 of 3): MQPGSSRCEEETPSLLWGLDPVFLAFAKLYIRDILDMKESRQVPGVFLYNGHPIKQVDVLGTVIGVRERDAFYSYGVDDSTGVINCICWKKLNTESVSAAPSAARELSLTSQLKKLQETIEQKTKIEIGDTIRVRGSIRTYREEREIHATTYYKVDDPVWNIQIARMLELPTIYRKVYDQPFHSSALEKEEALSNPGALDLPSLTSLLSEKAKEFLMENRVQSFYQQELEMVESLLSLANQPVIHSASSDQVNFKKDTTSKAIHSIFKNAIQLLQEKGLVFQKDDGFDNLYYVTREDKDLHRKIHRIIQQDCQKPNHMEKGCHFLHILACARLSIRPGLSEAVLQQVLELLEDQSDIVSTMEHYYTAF
T1 sequence (Q86WV5 whole entry, chain 3 of 3): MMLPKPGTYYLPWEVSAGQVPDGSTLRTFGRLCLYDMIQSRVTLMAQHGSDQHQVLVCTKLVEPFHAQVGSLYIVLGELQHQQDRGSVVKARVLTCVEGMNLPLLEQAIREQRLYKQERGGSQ

[2] = biological target: T1, CST (CTC1-STN1-TEN1); experiment: fluorescence anisotropy; 200 mM KCl; FA: 200 mM NaCl, KCl or LiCl, 20 mM HEPES pH 7.4, 1 mM DTT, 22-25 C, 375 or 750 pM oligo, Kd,app +/- SEM; EMSA: 20 mM HEPES pH 7.4, 200 mM KCl, 1 nM 32P oligo; settings: protein: recombinant, tags: 2xFLAG N-term on CTC1, 6xHis N-term on STN1 and TEN1, copies: 1;1;1, label: 5' fluorescein, linear in LiCl
[3] = biological target: T1, CST (CTC1-STN1-TEN1); experiment: fluorescence anisotropy; 200 mM NaCl; FA: 200 mM NaCl, KCl or LiCl, 20 mM HEPES pH 7.4, 1 mM DTT, 22-25 C, 375 or 750 pM oligo, Kd,app +/- SEM; EMSA: 20 mM HEPES pH 7.4, 200 mM KCl, 1 nM 32P oligo; settings: protein: recombinant, tags: 2xFLAG N-term on CTC1, 6xHis N-term on STN1 and TEN1, copies: 1;1;1, label: 5' fluorescein
[4] = biological target: T2, RPA WT (RPA70-RPA32-RPA14) (human, UniProt P27694;P15927;P35244 1-616;1-270;1-121); experiment: as above; settings: protein: recombinant, tags: 6xHis N-term on RPA70 and RPA14, copies: 1;1;1, label: 5' fluorescein, linear in LiCl
T2 sequence (P27694 whole entry, chain 1 of 3): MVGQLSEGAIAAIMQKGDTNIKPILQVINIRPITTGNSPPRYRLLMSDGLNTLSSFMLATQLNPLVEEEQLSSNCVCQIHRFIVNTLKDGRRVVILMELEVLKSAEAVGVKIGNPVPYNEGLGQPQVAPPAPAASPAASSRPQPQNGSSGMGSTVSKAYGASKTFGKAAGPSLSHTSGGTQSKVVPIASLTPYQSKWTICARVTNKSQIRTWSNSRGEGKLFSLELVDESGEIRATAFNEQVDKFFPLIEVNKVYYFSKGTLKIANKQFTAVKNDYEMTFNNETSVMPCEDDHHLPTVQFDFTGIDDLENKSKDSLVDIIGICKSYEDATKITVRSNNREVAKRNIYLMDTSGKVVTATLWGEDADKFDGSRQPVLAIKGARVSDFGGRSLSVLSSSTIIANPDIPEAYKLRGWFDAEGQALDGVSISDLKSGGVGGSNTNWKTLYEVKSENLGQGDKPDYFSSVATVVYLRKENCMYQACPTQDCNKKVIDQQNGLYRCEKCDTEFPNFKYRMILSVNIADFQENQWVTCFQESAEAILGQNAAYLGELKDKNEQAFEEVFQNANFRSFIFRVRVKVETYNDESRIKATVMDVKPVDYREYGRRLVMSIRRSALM
T2 sequence (P15927 whole entry, chain 2 of 3): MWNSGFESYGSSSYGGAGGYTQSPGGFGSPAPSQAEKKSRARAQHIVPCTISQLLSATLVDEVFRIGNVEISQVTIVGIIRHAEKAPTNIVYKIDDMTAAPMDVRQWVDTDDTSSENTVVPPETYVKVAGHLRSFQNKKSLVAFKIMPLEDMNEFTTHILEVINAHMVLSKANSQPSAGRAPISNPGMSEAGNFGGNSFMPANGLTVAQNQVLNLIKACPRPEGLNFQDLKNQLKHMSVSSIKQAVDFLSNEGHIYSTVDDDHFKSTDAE
T2 sequence (P35244 whole entry, chain 3 of 3): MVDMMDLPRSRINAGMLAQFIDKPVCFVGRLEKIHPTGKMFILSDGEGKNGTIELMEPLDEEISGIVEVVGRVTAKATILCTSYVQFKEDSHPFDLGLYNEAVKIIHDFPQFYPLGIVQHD

[5] = biological target: T2, RPA WT (RPA70-RPA32-RPA14); experiment: fluorescence anisotropy; 200 mM LiCl; FA: 200 mM NaCl, KCl or LiCl, 20 mM HEPES pH 7.4, 1 mM DTT, 22-25 C, 375 or 750 pM oligo, Kd,app +/- SEM; EMSA: 20 mM HEPES pH 7.4, 200 mM KCl, 1 nM 32P oligo; settings: protein: recombinant, tags: 6xHis N-term on RPA70 and RPA14, copies: 1;1;1, label: 5' fluorescein, linear in LiCl
[6] = biological target: T2, RPA WT (RPA70-RPA32-RPA14); experiment: fluorescence anisotropy; 200 mM KCl; FA: 200 mM NaCl, KCl or LiCl, 20 mM HEPES pH 7.4, 1 mM DTT, 22-25 C, 375 or 750 pM oligo, Kd,app +/- SEM; EMSA: 20 mM HEPES pH 7.4, 200 mM KCl, 1 nM 32P oligo; settings: protein: recombinant, tags: 6xHis N-term on RPA70 and RPA14, copies: 1;1;1, label: 5' fluorescein, linear in LiCl
[7] = parallel G4 in KCl (predominantly unimolecular)
[8] = intramolecular G4 at 3' end, 5' tail
[9] = intramolecular G4 at 5' end, 18 nt 3' tail

In the case of CGGGGCGGGCCTTGGGCGGGGT (structured_DNA) [2M27], the Kd [1, 7] is reported as 10.8 ± 0.2 nM and the Kd [2, 7] is reported as 13.3 ± 0.9 nM.

CCCTAACCCTAACCCTAACCCT (ssDNA) [C22] gave a Kd ([3]; linear) of 184 ± 28 nM.

TTGGGTTAGGGTTAGGGTTAGGGA (structured_DNA) [2GKU] was tested, and the Kd ([1]; hybrid 1 G4 in KCl) was 11.9 ± 1.2 nM.

GGGTAGGGAGCGGGAGAGGG (structured_DNA) [6GZN] gave a Kd ([1]; antiparallel G4 in KCl) of 1.1 ± 0.3 nM.

With TAGGGTTAGGGTTAGGGTTAGGGTT (structured_DNA) [2JSL] the Kd ([1]; hybrid 2 G4 in KCl) was 8.3 ± 0.6 nM.

Binder AGTGTGAGTGTGAGTGTTAGGGTTAGGGTTAGGGTTAGGG (structured_DNA) [Tel40 3' G4] has a Kd ([3]; intramolecular G4 at 3' end, 5' tail, linear in LiCl) of 2.3 ± 0.4 nM, a Kd [4, 8] of 0.4 ± 0.08 nM and a Kd [1, 8] of 1.09 ± 0.1 nM. For the same binder, the Kd [5, 8] was 0.68 ± 0.16 nM, the Kd [2, 8] was 3.4 ± 0.5 nM and the Kd [6, 8] was 0.52 ± 0.11 nM.

Binder TAGGGAGGGTAGGGAGGGT (structured_DNA) [2LBY] has a Kd ([1]; parallel G4 in KCl) of 11.5 ± 1.3 nM and a Kd ([2]; parallel G4 in KCl) of 26.5 ± 1.5 nM.

For AGGGCTAGGGCTAGGGCTAGGG (structured_DNA) [2KM3], the Kd ([1]; antiparallel G4 in KCl) was 4.5 ± 0.3 nM.

AGGGTTAGGGTTAGGGTTAGGGTGAGTGTGAGTGTGAGTG (structured_DNA) [Tel40 5' G4] gave a Kd ([3]; intramolecular G4 at 5' end, 18 nt 3' tail, linear in LiCl) of 1.47 ± 0.23 nM, a Kd [4, 9] of 0.78 ± 0.08 nM and a Kd [1, 9] of 1.53 ± 0.17 nM. The Kd [5, 9] was 0.82 ± 0.15 nM and the Kd [6, 9] was 0.85 ± 0.21 nM.

Work on AGTGTGAGTTAGGGTTAGGGTTAGGGTTAGGGTGAGTGTG (structured_DNA) [Tel40 Middle G4] yielded a Kd ([3]; intramolecular G4 in middle, linear in LiCl) of 1.04 ± 0.21 nM, a Kd ([4]; intramolecular G4 in middle) of 0.28 ± 0.03 nM and a Kd ([1]; intramolecular G4 in middle) of 1.94 ± 0.16 nM. The Kd ([5]; intramolecular G4 in middle) was 0.61 ± 0.13 nM, the Kd ([2]; intramolecular G4 in middle) was 4.4 ± 0.3 nM and the Kd ([6]; intramolecular G4 in middle) was 0.46 ± 0.05 nM.
